Nine sequences from the DeepSol protein solubility set can be followed below.

This data set in a line: soluble on expression in E. coli; label from the status in PepcDB or PDB records.
“MSLKILMIMEEAEERRSLAEKFIENIKNVECFEASMGTEALFIMKKHTPDFVFLNSKLMDGTGFEYVNLLREVNCYAKFIFMGEDIEESITAFRFQAFYYLLRPFREEDLQFLLYRMGKEGHHHHHH”: the “soluble on expression in E. coli” value was “soluble”.
Consider “VHFHPFGNVNFYEMDWSLKGDLWAHDPVIAKEGSRWYVFHTGSGIQIKTSEDGVHWENMGWVFPSLPDWYKQYVPEKDEDHLWAPDICFYNGIYYLYYSVSTFGKNTSVIGLATNQTLDPRDPDYEWKDMGPVIHSTASDNYNAIAPNVVFDQEGQPWLSFGSFWSGIQLIQLDTETMKPAAQAELLTIASRGEEPNAIEAPFIVCRNGYYYLFVSFDFCCRGIESTYKIAVGRSKDITGPYVDKNGVSMMQGGGTILDEGNDRWIGPGHCAVYFSGVSAILVNHAYDALKNGEPTLQIRPLYWDDEGWPYLSV”, for which the “soluble on expression in E. coli” value is reported as “soluble”.
Consider “MGSDKIHHHHHHMWTILCDKDSGGVLLRKGVSTSIIRSNPDLLEALPKAELYELGFFKAEDLEKVLRFFHDKNFGIHAPFIYRYRYHHPNPTSLNEEEREDTFSVNKKCAELARKIGAEYMIIHFPNALQKENWLSVYREVEREFSELAGVISVRVENVYGNDHFHSAEDYRTFLENTGCKMCVDIGHLLLDAEVYGFSPIEFIEKLSDFVEEFHIYYADFETYKKCHHAPWGESKEFLEVLEFIKDFDADFVLEPTPECEEGLEKLFEYWRDL”, for which the “soluble on expression in E. coli” value is “not soluble”.
On to “GMSVPQRPHQFVLTLSCPSAAGQVAAVVGLLDRHRCYVDELTVFDDDLSARFFVRCVFHATDDADALRVDALRREFEPIAERFRMQWAIHDVAARPKVLIMVSKLEHCLADLLFRWKMGELKMDIVGIVSNHPDFAPLAAQHGLPFRHFPITADTKAQQEAQWLDVFETSGAELVILARYMQVLSPEASARLANRAINIHHSFLPGFKGAKPYHQAHARGVKLIGATAHFVTDDLDEGPIIEQVVERVDHSYRPEQLLAVGRDVECITLARAVKAFIERRVFLNGDRTVVFQ”, for which the “soluble on expression in E. coli” value is reported as “soluble”.
As for “MNHAQSLYPLIERALLCPVLEDKLALAERLHRDWRAGMLARLASPAPYPLPEPGRPERPELVHPARVPKRSLSTRRGHGALLHAIAHIEFNAVNLALDAAWRFRDMPDEFVDDWLKVAAEEAGHFRLLQGRLAELGFSYGDFPAHDGLWAMCRKTDRDAMVRMALVPRVLEARGLDVTPGIQRRLAGIGDHASVAVLDVILRDEVGHVLIGNRWFVRLCRERGLEPQATFRGLLEQHAMQLHPGDYNLDARAAAGFFADELEALARLTESVSDGRLEHHHHHH”, the “soluble on expression in E. coli” value is “soluble”.
With “GSHMASMTGGQQMGRGSMNTEELQVAAFEIILNSGNARSIVHEAFDAMREKNYILAEQKLQEANDELLKAHQAQTDLLQEYASGTEIKIEIIMVHAQDHLMTTMTLREVAIEMLELYKKS”, the “soluble on expression in E. coli” value was “soluble”.
Consider “MIQCEECLCWQHSVCMGLLEESIPEQYICYICRDPPGQRWSAKYRYDKEWLNNGRMCGLSFFKENYSHLNAKKIVSTHHLLADVYGVTEVLHGLQLKIGILKNKHHPDLHLWACSGKRKDQDQIIAGVEKKIAQDTVNREEKKYVQNHKEPPRLPLKMEGTYITSEHSYQKPQSFGQDCKSLADPGSSDDDDVSSLEEEQEFHMRSKNSLQYSAKEHGMPEKNPAEGNTVFVYNDKKGTEDPGDSHLQWQLNLLTHIENVQNEVTSRMDLIEKEVDVLESWLDFTGELEPPDPLARLPQLKRHIKQLLIDMGKVQQIATLCSV”, for which the “soluble on expression in E. coli” value was “soluble”.
Consider “MGSDKIHHHHHHMANLLTINHLSYSRNLQLILKDLNLELPYGQIVGLLGTNGAGKTTLMRLIAGNYIDRKNSISINTETNSAVRKSLVSFTEQVGGWSGHPRIFKIGNFYDALYEDFNLTTFNQLLSNLNLSPDQRVNQLSKGNFRKLVIAVTLARQTDLYLLDEPFDGIDSMTRKKIISSIIQWKPENATVLVSDHHVGDIANLLDQVVIIKDQHVAAQEAADTIRETLGKDIETYYEDFYREEL”, for which the “soluble on expression in E. coli” value is “not soluble”.
With “MAHHHHHHMLRIGRTLLAEVTTINSTTASVSGRLIRIRKKSKWIDRRSTRVPHNGKDIWYFGDQPSCALCHIRFRYKQDYEAHKESELHVNRLRWVETMNWWRETGEPAYLKASNEQWEWFEQHVLPTKAQEMGCTLDEARRVYRQAIMTETPTWHRPLQCPTVKQEVQEPRDQRWPASPKW” the entry was “not soluble”.
